Measured values published in PMC10128069, “A Fijivirus Major Viroplasm Protein Shows RNA-Stimulated ATPase Activity by Adopting Pentameric and Hexameric Assemblies of Dimers” (mBio, 2023).

Assays:
[1] = biological target: P9-1 (Mal de Rio Cuarto virus (MRCV)) (UniProt D9U542); assay: competition EMSA; conditions: 10 mM Tris-HCl, 50 mM KCl, 0.5 mM EDTA, 10% glycerol, 1 mM DTT, pH 7.5; 30 min at room temperature; 6.5% native PAGE at 4 C
SAXS = biological target: the molecule itself; assay: SAXS
cryo-EM structure = biological target: the molecule itself; assay: cryo-EM structure
SEC-MALS = biological target: the molecule itself; assay: SEC-MALS
crystal structure = biological target: the molecule itself; assay: crystal structure
P9-1 = P9-1 (Mal de Rio Cuarto virus (MRCV), UniProt D9U542 1-337); assay: EMSA; 5 uM probe; concentration-dependent, 1, 3, 6 uM protein; 10 mM Tris-HCl, 50 mM KCl, 0.5 mM EDTA, 10% glycerol, 1 mM DTT, pH 7.5; 30 min at room temperature; 6.5% native PAGE at 4 C; conditions: protein: recombinant; tags: N-terminal 52-residue tag (6xHis/Xpress/EK); label: 5'-HEX; single strand

Molecule: poly(A), average 250 nt
- binding signal (fold decrease of ssDNA complex) [1]: 10

B1: P9-1 major viroplasm protein of mal de Río Cuarto virus (MRCV), full-length, expressed in E. coli from pRSET (natural protein)
chain: MADLERRTFGSYKIEEITIKNDQQQKTTNQQQISNNEQRISTKKIPILDDGIFDLINYLLNGTHFDKTHYCGFDYSHLPTLERDFNTASNYVSENYSIIVEEIDLNKYERSESISLKSPDFTVVLEYFKKHVEGQTEQEENKTESTSSELPAKIVRELPLLPIMCRESEDSISEDILEGEGAVIQVLKMFMKGFLVHLGENPNSYDRQLTIEKYRPLLISIIGYEFTVGTRATHTKINHIYYQLATFDNYPFDLLRFQLQSLIDTPNVIKERIEKDGLFKVITTTNARGQYQSVLLRGINGSESYLNLKRYRKFKVRVVGNVDNVIKNDFSSLKLDV
notes: source: E. coli BL21, purified (IMAC on Ni-NTA, SEC on Superdex 200); copies: 10 or 12
- stoichiometry N (SAXS): 10
- stoichiometry N (cryo-EM structure): 12
- stoichiometry N (SEC-MALS): ~10.4 protomers

B2: P9-1ΔC-arm (residues 1 to 313 of MRCV P9-1, lacking the 24 C-terminal residues) (domain or fragment)
chain: MADLERRTFGSYKIEEITIKNDQQQKTTNQQQISNNEQRISTKKIPILDDGIFDLINYLLNGTHFDKTHYCGFDYSHLPTLERDFNTASNYVSENYSIIVEEIDLNKYERSESISLKSPDFTVVLEYFKKHVEGQTEQEENKTESTSSELPAKIVRELPLLPIMCRESEDSISEDILEGEGAVIQVLKMFMKGFLVHLGENPNSYDRQLTIEKYRPLLISIIGYEFTVGTRATHTKINHIYYQLATFDNYPFDLLRFQLQSLIDTPNVIKERIEKDGLFKVITTTNARGQYQSVLLRGINGSESYLNLKRYRK
notes: source: E. coli BL21, purified (IMAC on Ni-NTA, SEC on Superdex 200); not shown: His6, N-terminal, kept
- stoichiometry N (crystal structure): 2
- stoichiometry N (SEC-MALS): ~2.3 protomers

Molecule: GACCTCGCTCTCTGTTTCTCAT (ssDNA) [22-nt HEX-ssDNA probe]
- binding result (P9-1): binds
